What was measured:
[1] = system: HeLa Kyoto; experiment: solubility in G1/S (NP-40 vs SDS abundance) (log2 ratio); higher = more soluble; settings: cell cycle stage: G1/S
[2] = system: HeLa Kyoto; experiment: solubility change mitosis vs G1/S (difference of NP-40 vs SDS log2 ratios) (log2 ratio difference); higher = more soluble in mitosis
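Wherever solubility change mitosis vs G1/S (difference of NP-40 vs SDS log2 ratios) is given: synchronized HeLa Kyoto cells (double thymidine block for G1/S, nocodazole release for mitosis), protein amounts in NP-40 versus SDS lysates quantified by mass spectrometry, three biological replicates.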
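Wherever solubility in G1/S (NP-40 vs SDS abundance) is given: HeLa Kyoto cells arrested at G1/S by double thymidine block, proteins quantified by TMT10plex mass spectrometry in mild NP-40 versus SDS extracts, three biological replicates.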

Row | Sequence | solubility in G1/S (log2) [1] | solubility change mitosis (log2) [2]
1 | MSSEESYRAILRYLTNEREPYAPGTEGNVKRKIRKAAACYVVRGGTLYYQRRQRHRKTFAELEVVLQPERRRDLIEAAHLGPGGTHHTRHQTWHYLSKTYWWRGILKQVKDYIKQCSKCQEKLDRSRPISDVSEMLEELGLDLESGEESNESEDDLSNFTSSPTTASKPAKKKPVSKHELVFVDTKGVVKRSSPKHCQAVLKQLNEQRLSNQFCDVTLLIEGEEYKAHKSVLSANSEYFRDLFIEKGAVSSHEAVVDLSGFCKASFLPLLEFAYTSVLSFDFCSMADVAILARHLFMSEVLEICESVHKLMEEKQLTVYKKGEVQTVASTQDLRVQNGGTAPPVASSEGTTTSLPTELGDCEIVLLVNGELPEAEQNGEVGRQPEPQVSSEAESALSSVGCIADSHPEMESVDLITKNNQTELETSNNRENNTVSNIHPKLSKENVISSSPEDSGMGNDISAEDICAEDIPKHRQKVDQPLKDQENLVASTAKTDFGPDDDTYRSRLRQRSVNEGAYIRLHKGMEKKLQKRKAVPKSAVQQVAQKLVQRGKKMKQPKRDAKENTEEASHKCGECGMVFQRRYALIMHKLKHERARDYKCPLCKKQFQYSASLRAHLIRHTRKDAPSSSSSNSTSNEASGTSSEKGRTKREFICSICGRTLPKLYSLRIHMLKHTGVKPHACQVCGKTFIYKHGLKLHQSLHQSQKQFQCELCVKSFVTKRSLQEHMSIHTGESKYLCSVCGKSFHRGSGLSKHFKKHQPKPEVRGYHCTQCEKSFFEARDLRQHMNKHLGVKPFQCQFCDKCYSWKKDWYSHVKSHSVTEPYRCNICGKEFYEKALFRRHVKKATHGKKGRAKQNLERVCEKCGRKFTQLREYRRHMNNHEGVKPFECLTCGVAWADARSLKRHVRTHTGERPYVCPVCSEAYIDARTLRKHMTKFHRDYVPCKIMLEKDTLQFHNQGTQVAHAVSILTAGMQEQESSGPQELETVVVTGETMEALEAVAATEEYPSVSTLSDQSIMQVVNYVLAQQQGQKLSEVAEAIQTVKVEVAHISGGE [ZBTB11] | -0.621 | 0.267
2 | MNRVLCAPAAGAVRALRLIGWASRSLHPLPGSRDRAHPAAEEEDDPDRPIEFSSSKANPHRWSVGHTMGKGHQRPWWKVLPLSCFLVALIIWCYLREESEADQWLRQVWGEVPEPSDRSEEPETPAAYRART [CCSMST1] | -0.299 | 0.566
3 | MDEQEALNSIMNDLVALQMNRRHRMPGYETMKNKDTGHSNRQSDVRIKFEHNGERRIIAFSRPVKYEDVEHKVTTVFGQPLDLHYMNNELSILLKNQDDLDKAIDILDRSSSMKSLRILLLSQDRNHNSSSPHSGVSRQVRIKASQSAGDINTIYQPPEPRSRHLSVSSQNPGRSSPPPGYVPERQQHIARQGSYTSINSEGEFIPETSEQCMLDPLSSAENSLSGSCQSLDRSADSPSFRKSRMSRAQSFPDNRQEYSDRETQLYDKGVKGGTYPRRYHVSVHHKDYSDGRRTFPRIRRHQGNLFTLVPSSRSLSTNGENMGLAVQYLDPRGRLRSADSENALSVQERNVPTKSPSAPINWRRGKLLGQGAFGRVYLCYDVDTGRELASKQVQFDPDSPETSKEVSALECEIQLLKNLQHERIVQYYGCLRDRAEKTLTIFMEYMPGGSVKDQLKAYGALTESVTRKYTRQILEGMSYLHSNMIVHRDIKGANILRDSAGNVKLGDFGASKRLQTICMSGTGMRSVTGTPYWMSPEVISGEGYGRKADVWSLGCTVVEMLTEKPPWAEYEAMAAIFKIATQPTNPQLPSHISEHGRDFLRRIFVEARQRPSAEELLTHHFAQLMY [MAP3K3] | 0.569 | -0.169
4 | MEGRSAAAETFVWVNNASAHSQSVAKAKYEFLFGRSEGKAPDTSDHGGSTLLPPNVTNEFPEYGTMEEGGEGLRASLEFDGEALPCHPQEQQGVQPLTGCHSGLDSVTEGPKDVREAPSQSHLKEQSLQPIDSLISALKATEARIISGTLQATKVLDQDAVSSFSVQQVEKELDTASRKTQRVNKTLPAGQKNLPEIPLSAEVTTEESFYLSIQKDLTALLTGDTQAEISQIMNNGRKGAVCVQEPSCPLASLGSSAVTCHSAGSVGFLKEQRSALGREHPGGCDRSSSMGRPGRVKHVEFQGVEILWTGGDKRETQHPIDFETSLQRTASPDSKESSKVPRHLISSAGLCNSSSLTENVWDESWKAPSERPGTSSGTFSPVRLDESGEDEVFLQENKQHLEKTPKPERDRERISEQEEHVKGEDEDILGPGYTEDSTDVYSSQFETILDNTSLYYSAESLETLYSEPDSYFSFEMPLTPMIQQRIKEGGQFLERTSGGGHQDILSVSADGGIVMGYSSGVTNGLNDASDSIYTKGTPEIAFWGSNAGVKTTRLEAHSEMGSTEILEKETPENLSNGTSSNVEAAKRLAKRLYQLDRFKRSDVAKHLGKNNEFSKLVAEEYLKFFDFTGMTLDQSLRYFFKAFSLVGETQERERVLIHFSNRYFYCNPDTIASQDGVHCLTCAIMLLNTDLHGHVNIGKKMTCQEFIANLQGVNEGVDFSKDLLKALYNSIKNEKLEWAVDDEEKKKSPSESTEEKANGTHPKTISRIGSTTNPFLDIPHDPNAAVYKSGFLARKIHADMDGKKTPRGKRGWKTFYAVLKGTVLYLQKDEYKPEKALSEEDLKNAVSVHHALASKATDYEKKPNVFKLKTADWRVLLFQTQSPEEMQGWINKINCVAAVFSAPPFPAAIGSQKKFSRPLLPATTTKLSQEEQLKSHESKLKQITTELAEHRSYPPDKKVKAKDVDEYKLKDHYLEFEKTRYEMYVSILKEGGKELLSNDESEAAGLKKSHSSPSLNPDTSPITAKVKRNVSERKDHRPETPSIKQKVT [PSD3] | -0.107 | -0.00479
5 | MDSLDHMLTDPLELGPCGDGHGTRIMEDCLLGGTRVSLPEDLLEDPEIFFDVVSLSTWQEVLSDSQREHLQQFLPQFPEDSAEQQNELILALFSGENFRFGNPLHIAQKLFRDGHFNPEVVKYRQLCFKSQYKRYLNSQQQYFHRLLKQILASRSDLLEMARRSGPALPFRQKRPSPSRTPEEREWRTQQRYLKVLREVKEECGDTALSSDEEDLSSWLPSSPARSPSPAVPLRVVPTLSTTDMKTADKVELGDSDLKIMLKKHHEKRKHQPDHPDLLTGDLTLNDIMTRVNAGRKGSLAALYDLAVLKKKVKEKEEKKKKKIKTIKSEAEDLAEPLSSTEGVAPLSQAPSPLAIPAIKEEPLEDLKPCLGINEISSSFFSLLLEILLLESQASLPMLEERVLDWQSSPASSLNSWFSAAPNWAELVLPALQYLAGESRAVPSSFSPFVEFKEKTQQWKLLGQSQDNEKELAALFQLWLETKDQAFCKQENEDSSDATTPVPRVRTDYVVRPSTGEEKRVFQEQERYRYSQPHKAFTFRMHGFESVVGPVKGVFDKETSLNKAREHSLLRSDRPAYVTILSLVRDAAARLPNGEGTRAEICELLKDSQFLAPDVTSTQVNTVVSGALDRLHYEKDPCVKYDIGRKLWIYLHRDRSEEEFERIHQAQAAAAKARKALQQKPKPPSKVKSSSKESSIKVLSSGPSEQSQMSLSDSSMPPTPVTPVTPTTPALPAIPISPPPVSAVNKSGPSTVSEPAKSSSGVLLVSSPTMPHLGTMLSPASSQTAPSSQAAARVVSHSGSAGLSQVRVVAQPSLPAVPQQSGGPAQTLPQMPAGPQIRVPATATQTKVVPQTVMATVPVKAQTTAATVQRPGPGQTGLTVTSLPATASPVSKPATSSPGTSAPSASTAAVIQNVTGQNIIKQVAITGQLGVKPQTGNSIPLTATNFRIQGKDVLRLPPSSITTDAKGQTVLRITPDMMATLAKSQVTTVKLTQDLFGTGGNTTGKGISATLHVTSNPVHAADSPAKASSASAPSSTPTGTTVVKVTPDLKPTEASSSAFRLMPALGVSVADQKGKSTVASSEAKPAATIRIVQGLGVMPPKAGQTITVATHAKQGASVASGSGTVHTSAVSLPSMNAAVSKTVAVASGAASTPISISTGAPTVRQVPVSTTVVSTSQAGKLPTRITVPLSVISQPMKGKSVVTAPIIKGNLGANLSGLGRNIILTTMPAGTKLIAGNKPVSFLTAQQLQQLQQQGQATQVRIQTVPASHLQQGTASGSSKAVSTVVVTTAPSPKQAPEQQ [NFRKB] | -0.0172 | 0.184
6 | MRSRSNSGVRLDGYARLVQQTILCHQNPVTGLLPASYDQKDAWVRDNVYSILAVWGLGLAYRKNADRDEDKAKAYELEQSVVKLMRGLLHCMIRQVDKVESFKYSQSTKDSLHAKYNTKTCATVVGDDQWGHLQLDATSVYLLFLAQMTASGLHIIHSLDEVNFIQNLVFYIEAAYKTADFGIWERGDKTNQGISELNASSVGMAKAALEALDELDLFGVKGGPQSVIHVLADEVQHCQSILNSLLPRASTSKEVDASLLSVVSFPAFAVEDSQLVELTKQEIITKLQGRYGCCRFLRDGYKTPKEDPNRLYYEPAELKLFENIECEWPLFWTYFILDGVFSGNAEQVQEYKEALEAVLIKGKNGVPLLPELYSVPPDRVDEEYQNPHTVDRVPMGKLPHMWGQSLYILGSLMAEGFLAPGEIDPLNRRFSTVPKPDVVVQVSILAETEEIKTILKDKGIYVETIAEVYPIRVQPARILSHIYSSLGCNNRMKLSGRPYRHMGVLGTSKLYDIRKTIFTFTPQFIDQQQFYLALDNKMIVEMLRTDLSYLCSRWRMTGQPTITFPISHSMLDEDGTSLNSSILAALRKMQDGYFGGARVQTGKLSEFLTTSCCTHLSFMDPGPEGKLYSEDYDDNYDYLESGNWMNDYDSTSHARCGDEVARYLDHLLAHTAPHPKLAPTSQKGGLDRFQAAVQTTCDLMSLVTKAKELHVQNVHMYLPTKLFQASRPSFNLLDSPHPRQENQVPSVRVEIHLPRDQSGEVDFKALVLQLKETSSLQEQADILYMLYTMKGPDWNTELYNERSATVRELLTELYGKVGEIRHWGLIRYISGILRKKVEALDEACTDLLSHQKHLTVGLPPEPREKTISAPLPYEALTQLIDEASEGDMSISILTQEIMVYLAMYMRTQPGLFAEMFRLRIGLIIQVMATELAHSLRCSAEEATEGLMNLSPSAMKNLLHHILSGKEFGVERSVRPTDSNVSPAISIHEIGAVGATKTERTGIMQLKSEIKQVEFRRLSISAESQSPGTSMTPSSGSFPSAYDQQSSKDSRQGQWQRRRRLDGALNRVPVGFYQKVWKVLQKCHGLSVEGFVLPSSTTREMTPGEIKFSVHVESVLNRVPQPEYRQLLVEAILVLTMLADIEIHSIGSIIAVEKIVHIANDLFLQEQKTLGADDTMLAKDPASGICTLLYDSAPSGRFGTMTYLSKAAATYVQEFLPHSICAMQ [PHKA1] | 0.037 | -0.332
7 | MAGPQPLALQLEQLLNPRPSEADPEADPEEATAARVIDRFDEGEDGEGDFLVVGSIRKLASASLLDTDKRYCGKTTSRKAWNEDHWEQTLPGSSDEEISDEEGSGDEDSEGLGLEEYDEDDLGAAEEQECGDHRESKKSRSHSAKTPGFSVQSISDFEKFTKGMDDLGSSEEEEDEESGMEEGDDAEDSQGESEEDRAGDRNSEDDGVVMTFSSVKVSEEVEKGRAVKNQIALWDQLLEGRIKLQKALLTTNQLPQPDVFPLFKDKGGPEFSSALKNSHKALKALLRSLVGLQEELLFQYPDTRYLVDGTKPNAGSEEISSEDDELVEEKKQQRRRVPAKRKLEMEDYPSFMAKRFADFTVYRNRTLQKWHDKTKLASGKLGKGFGAFERSILTQIDHILMDKERLLRRTQTKRSVYRVLGKPEPAAQPVPESLPGEPEILPQAPANAHLKDLDEEIFDDDDFYHQLLRELIERKTSSLDPNDQVAMGRQWLAIQKLRSKIHKKVDRKASKGRKLRFHVLSKLLSFMAPIDHTTMNDDARTELYRSLFGQLHPPDEGHGD [AATF] | -2.12 | 0.788
8 | MILQRLFRFSSVIRSAVSVHLRRNIGVTAVAFNKELDPIQKLFVDKIREYKSKRQTSGGPVDASSEYQQELERELFKLKQMFGNADMNTFPTFKFEDPKFEVIEKPQA [ATP5J] | -0.962 | 0.55
